Molecular target: Canine IL-31RA ECD-10His (canine)
Test: ELISA, IL-31RA coated at 1 ug/mL, biotinylated IL-31 titrated, HRP-streptavidin

Chain of Canine IL-31RA ECD-10His (canine) (chain, as listed by the source limits assumed): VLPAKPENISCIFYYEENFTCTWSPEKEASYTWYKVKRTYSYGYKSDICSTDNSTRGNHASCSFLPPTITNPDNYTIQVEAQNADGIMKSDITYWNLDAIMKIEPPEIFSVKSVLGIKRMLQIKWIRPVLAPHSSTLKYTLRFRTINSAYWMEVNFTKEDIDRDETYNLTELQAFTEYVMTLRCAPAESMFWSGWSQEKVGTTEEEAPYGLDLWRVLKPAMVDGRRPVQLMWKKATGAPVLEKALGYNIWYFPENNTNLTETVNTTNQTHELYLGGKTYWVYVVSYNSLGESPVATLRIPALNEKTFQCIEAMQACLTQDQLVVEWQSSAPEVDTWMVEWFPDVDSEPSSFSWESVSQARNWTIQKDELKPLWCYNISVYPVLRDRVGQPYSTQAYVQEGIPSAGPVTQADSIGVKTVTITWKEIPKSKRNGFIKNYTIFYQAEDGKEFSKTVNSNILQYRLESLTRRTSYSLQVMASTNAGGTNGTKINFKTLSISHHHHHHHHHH

EC50: 0.55 ng/mL
Substance: canine IL-31 (ligand)

— patent US20250340653A1
